The target of the assay is T1, NAC CoV2 Mosaic (SARS-COV-2).
T1 construct: also called NAC Mosaic (The Native Antigen Company)
The experiment in a line: ForteBio.

Kd data for 1 molecule are collected here from patent US20240190946A1 (AUGMENTA BIOWORKS, published 2024).

Broadly, the Kd is the constant that tells how readily two partners part at equilibrium. Higher therefore signals a looser complex.

B1: SC2 antibody 3396 (antibody, V domains shown)
VH: GVQLVESGGGLVQPGRSLRVSCAASGFTFADYAMHWVRQAPGKGLEWVSGISWNSGNIAYADSVKGRFTISRDNAKNSLYLQMDSLRPDDTALYYCVKASTLYYYFYMDVWGKGTTVTVSS
VL: QSALTQPPSASGSPGQSVTISCTGTSSDVGGYDYVSWYQQHPGKAPKFMIYEVSKRPSGVPDRFSGSKSGNTASLTVSGLQAEDEADYYCCSYAGSNNYVFGTGTKVTVLG
notes: also called Anti-SARS-COV-2 antibody 3396
B1 gave a Kd of 21 nM.
